Target: T1, proliferating cell nuclear antigen (PCNA), yeast (yeast, UniProt P15873 1-258)
T1 sequence (looked up): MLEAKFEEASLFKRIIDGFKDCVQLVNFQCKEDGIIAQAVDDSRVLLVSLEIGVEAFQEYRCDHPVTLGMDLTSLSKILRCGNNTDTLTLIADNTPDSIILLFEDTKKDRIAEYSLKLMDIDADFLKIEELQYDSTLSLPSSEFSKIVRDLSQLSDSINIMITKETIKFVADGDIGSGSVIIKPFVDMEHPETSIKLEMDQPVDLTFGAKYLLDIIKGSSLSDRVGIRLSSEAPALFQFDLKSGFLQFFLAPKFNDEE
Assay: pull-down

binding result: binds
B1: GST-PINIT (Siz1 aa 172-315 as a C-terminal fusion to GST), wild-type (domain or fragment, S. cerevisiae, UniProt Q04195 172-315, looked up)
chain: VPTIHFKESPFYKIQRLIPELVMNVEVTGGRGMCSAKFKLSKADYNLLSNPNSKHRLYLFSGMINPLGSRGNEPIQFPFPNELRCNNVQIKDNIRGFKSKPGTAKPADLTPHLKPYTQQNNVELIYAFTTKEYKLFGYIVEMIT
